We go through 2 molecules from doi:10.1101/2025.07.02.662585 (bioRxiv, 2025).

The target of this assay is Tor2 (yeast (endogenous in yeast cells), UniProt P32600 1-2474). Put plainly: cryo-EM structure.
Sequence of Tor2 (P32600 whole entry): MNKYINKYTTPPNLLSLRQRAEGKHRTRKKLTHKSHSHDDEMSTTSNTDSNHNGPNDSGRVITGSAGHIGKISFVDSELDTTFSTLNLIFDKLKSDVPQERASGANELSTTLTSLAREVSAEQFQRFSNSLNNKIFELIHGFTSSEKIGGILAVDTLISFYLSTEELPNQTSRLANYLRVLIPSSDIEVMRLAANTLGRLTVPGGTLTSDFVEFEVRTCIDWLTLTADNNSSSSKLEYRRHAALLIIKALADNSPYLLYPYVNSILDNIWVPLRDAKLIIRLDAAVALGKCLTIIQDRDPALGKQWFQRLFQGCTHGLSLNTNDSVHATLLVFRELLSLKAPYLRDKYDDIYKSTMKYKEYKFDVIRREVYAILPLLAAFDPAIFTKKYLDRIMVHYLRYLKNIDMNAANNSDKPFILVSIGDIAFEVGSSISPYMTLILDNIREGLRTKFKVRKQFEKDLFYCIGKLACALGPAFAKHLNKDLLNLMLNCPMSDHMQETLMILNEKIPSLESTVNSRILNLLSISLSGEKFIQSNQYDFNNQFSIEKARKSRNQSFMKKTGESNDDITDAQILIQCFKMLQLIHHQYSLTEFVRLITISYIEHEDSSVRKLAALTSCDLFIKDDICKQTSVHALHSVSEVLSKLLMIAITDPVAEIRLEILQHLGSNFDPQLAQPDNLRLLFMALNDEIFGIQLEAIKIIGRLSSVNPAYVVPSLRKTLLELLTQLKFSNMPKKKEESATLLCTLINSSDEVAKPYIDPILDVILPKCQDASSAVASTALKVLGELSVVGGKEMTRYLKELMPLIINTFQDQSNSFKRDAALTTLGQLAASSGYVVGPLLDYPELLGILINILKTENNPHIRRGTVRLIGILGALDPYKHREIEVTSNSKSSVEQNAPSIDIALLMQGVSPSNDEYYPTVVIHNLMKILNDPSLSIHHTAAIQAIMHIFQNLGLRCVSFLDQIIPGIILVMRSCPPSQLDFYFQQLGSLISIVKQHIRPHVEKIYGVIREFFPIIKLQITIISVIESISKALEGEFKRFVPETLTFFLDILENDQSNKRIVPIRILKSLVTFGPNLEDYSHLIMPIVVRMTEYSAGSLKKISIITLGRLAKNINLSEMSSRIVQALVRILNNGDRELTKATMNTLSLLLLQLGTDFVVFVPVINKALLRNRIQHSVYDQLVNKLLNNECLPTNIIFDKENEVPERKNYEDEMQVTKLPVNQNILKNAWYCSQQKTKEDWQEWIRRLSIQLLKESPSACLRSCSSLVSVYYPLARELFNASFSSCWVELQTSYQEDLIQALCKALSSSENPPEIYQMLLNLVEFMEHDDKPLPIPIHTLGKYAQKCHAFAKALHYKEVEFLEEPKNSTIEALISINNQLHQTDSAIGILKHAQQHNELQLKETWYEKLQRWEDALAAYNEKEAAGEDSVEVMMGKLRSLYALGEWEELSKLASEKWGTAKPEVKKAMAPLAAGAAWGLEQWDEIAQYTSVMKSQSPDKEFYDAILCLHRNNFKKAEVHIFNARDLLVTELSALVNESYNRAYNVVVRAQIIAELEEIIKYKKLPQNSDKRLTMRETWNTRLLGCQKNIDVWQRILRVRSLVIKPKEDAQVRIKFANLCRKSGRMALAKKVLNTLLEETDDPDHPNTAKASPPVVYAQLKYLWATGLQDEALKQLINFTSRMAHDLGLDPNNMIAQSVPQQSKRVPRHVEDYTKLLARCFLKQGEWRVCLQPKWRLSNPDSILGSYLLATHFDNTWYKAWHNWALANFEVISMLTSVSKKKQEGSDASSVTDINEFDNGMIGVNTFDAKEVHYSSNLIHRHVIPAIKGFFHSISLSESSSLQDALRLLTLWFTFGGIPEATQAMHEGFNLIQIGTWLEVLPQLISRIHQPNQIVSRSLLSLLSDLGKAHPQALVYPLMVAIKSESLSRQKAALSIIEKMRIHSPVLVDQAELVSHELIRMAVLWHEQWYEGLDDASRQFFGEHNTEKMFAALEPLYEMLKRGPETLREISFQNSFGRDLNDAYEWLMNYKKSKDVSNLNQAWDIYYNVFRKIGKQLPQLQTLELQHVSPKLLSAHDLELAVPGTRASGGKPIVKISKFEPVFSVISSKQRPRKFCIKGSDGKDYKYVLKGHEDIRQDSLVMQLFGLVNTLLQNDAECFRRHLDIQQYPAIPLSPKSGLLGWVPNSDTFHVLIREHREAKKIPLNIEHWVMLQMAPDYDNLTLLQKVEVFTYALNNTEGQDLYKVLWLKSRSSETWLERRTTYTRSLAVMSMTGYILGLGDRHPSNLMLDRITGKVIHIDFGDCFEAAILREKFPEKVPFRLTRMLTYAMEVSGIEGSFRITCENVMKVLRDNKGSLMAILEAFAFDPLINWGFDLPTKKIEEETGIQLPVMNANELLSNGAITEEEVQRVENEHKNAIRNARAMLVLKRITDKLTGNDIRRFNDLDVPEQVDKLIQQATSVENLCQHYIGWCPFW

B1: Avo2 (natural protein)
chain: MLKEPSVRLREAIIEGNLLIVKRLLRRNPDLLTNIDSENGWSSLHYASYHGRYLICVYLIQLGHDKHELIKTFKGNTCVHLALMKGHEQTLHLLLQQFPRFINHRGENGRAPIHIACMNDYYQCLSLLIGVGADLWVMDTNGDTPLHVCLEYGSISCMKMLLNEGEVSLDDNVRDKGNWKPIDVAQTFEVGNIYSKVLKEVKKKGPPLGAGKKPSSFRTPILNAKATFEDGPSPVLSMNSPYSLYSNNSPLPVLPRRISTHTTSGNGGNRRSSITNPVFNPRKPTLSTDSFSSSSNSSSRLRVNSINVKTPVGVSPKKELVSESVRHSATPTSPHNNIALINRYLLPNKSNDNVRGDSQTATINDDGGGGNGGDATIGMGLRKDPDDENENKYKIKVNNGEPRRRVSLLNIPISKLRNSNNTRAED
On to B1, for which the binding result is on record as “binds”.

B2: Lst8 (natural protein)
chain: MSVILVSAGYDHTIRFWEALTGVCSRTIQHSDSQVNRLEITNDKKLLATAGHQNVRLYDIRTTNPNPVASFEGHRGNVTSVSFQQDNRWMVTSSEDGTIKVWDVRSPSIPRNYKHNAPVNEVVIHPNQGELISCDRDGNIRIWDLGENQCTHQLTPEDDTSLQSLSMASDGSMLAAANTKGNCYVWEMPNHTDASHLKPVTKFRAHSTYITRILLSSDVKHLATCSADHTARVWSIDDDFKLETTLDGHQRWVWDCAFSADSAYLVTASSDHYVRLWDLSTREIVRQYGGHHKGAVCVALNDV
Turning to B2, the binding result is “binds”.
